US7163815B2, “Methods and compositions for NAD(P)(H) oxidases” (Georgia Tech Research Corporation, priority 2002, dated 2007)
“Also recorded” adds a separate entry of the source.

Tests used:
[1] = system: L. brevis (R)-ADH, G37D mutant; conditions: in comparison with the wildtype for NADP^+; cited from earlier work
[2] = system: NC(=O)C1=CN([C@@H]2O[C@H](COP(=O)(O)OP(=O)(O)OC[C@H]3O[C@@H](n4cnc5c(N)ncnc54)[C@H](O)[C@@H]3O)[C@@H](O)[C@H]2O)C=CC1; experiment: Kinetics of cofactor substrates, BNOX (change of absorbance at 340 nm); assay type: biochemical, Borrelia burgdorferi; conditions: other: BNOX, pH 7.0, 30° C., HEPES buffer, air-saturated solution, 40% ammonium sulfate cut for BNOXK6
Procedure: (§1) The kinetic analysis was performed on ammonium sulfate fractions from both the sfnox and bnox strains in 50 mM HEPES buffer pH 7.0 at 30° C. The initial enzyme fractions were diluted in 25 mM HEPES pH 7.0 at 30° C.+25% glycerol+5 mM DTT to approximately −0.05 A340 nm/min and retained on ice during analysis. Conversion of NAD(P)H was followed by change of absorbance at 340 nm in a Jasco V-530 spectrophotometer. 3 mL methylacrylate disposable cuvettes were used for all experiments and all runs were performed in triplicate at 30° C. Reactions with NADH were started by adding 3 μL of enzyme preparation, 9 μL for NADPH, to the cuvette and mixing by inversion with parafilm three times. Varying concentrations of NAD(P)H substrate were made my preparing 100 mL of a 300 μM solution in a volumetric flask. Dilutions of this solution were then made to provide the differing substrate concentrations for the kinetic profile.
(§2) Investigation of kinetic parameters with NADH and NADPH cofactors as substrates was performed with the supernatant of the 45% ammonium sulfate cut (40% for BNOXK6) in air-saturated solution at 30° C. and pH 7.0 in 0.1 M HEPES buffer. […] Chi values and error bars reveal high accuracy with <10% error in most cases.

[3] = target: Borrelia burgdorferi NADH oxidase BNOX (BNOXK6; SEQ ID NOs 8, 10 and 12) (Borreliella burgdorferi, UniProt O51670, E220G/N174S); experiment: as above; assay type: biochemical; conditions: pH 7.0, 30° C., comparable degree of purity to SFNOX
Procedure: as §1, §2

[4] = Nox activity assay (NADH oxidation at 340 nm); assay type: biochemical; conditions: overexpressed in E. coli
Procedure: Nox activity assay: Cell-free extracts of the recombinant sfnox and bnox E. coli strains were prepared using ultrasonication described above in 0.1 M TEA pH 7.5+5 mM DTT or β-mercaptoethanol. Nox activities were assayed at 30° C. in a total volume of 1 mL at 340 nm using the following conditions: in 0.1 M TEA pH 7.5 a final concentration of 0.2 mM NADH was dissolved and 10 μl enzyme solution was added. Enzyme reaction was followed for 1 min, activity was calculated using an extinction coefficient ε of NADH of […].

[5] = Hydrogen peroxide assay (Amplex Red / resorufin fluorescence); assay type: biochemical; conditions: upon conversion of 300 μM NADH
Procedure: With its detection limit of 100 nM, the test based on 9-acetyl-resorufin (“Amplex Red”) is much more sensitive than the other assays mentioned. Horseradish peroxidase (HRP)-catalyzed oxidation of 9-acetyl resorufin (“Amplex Red”) to fluorescent resorufin was the assay. Amplex Red reacts with H2O2 according to a strict 1:1 stoichiometry. The resorufin assay (λmax: 587 nm (emission), ε=54,000 L(mol-cm)^−1) with its extremely low detection limit of 100 nM resorufin product is much more sensitive than other assays, such as ABTS or o-dianisidine..
For the sensitive assay of putative hydrogen peroxide formation during the reaction of NADH oxidase the horseradish peroxidase-catalyzed oxidation of 9-acetyl resorufin was employed. The Amplex Red hydrogen peroxide assay kit (A-22188) from molecular probes was utilized for these assays. Following the protocols outlined in the kit instructions, a standard curve of H2O2 was prepared in the reaction buffer (50 mM sodium phosphate buffer pH 7.4) from the peroxide stock. The prepared concentrations were 20, 10, 5, and 2.5 μM H2O2 and 0 as a control. A working solution of 100 μM Amplex Red reagent and 0.2 U/ml horseradish peroxidase (HRP) was prepared in the reaction buffer as per kit instructions. As NADH and other reducing reagents are known to interfere with the amplex red assay, the NADH oxidase enzymes were allowed to react with the substrate immediately prior to the Amplex Red analysis. Reaction buffer from the kit was utilized in running enzyme test with 300 μM NADH as well as the controls without NADH. The enzyme conversions were performed by adding 3 μl of enzyme prep to 3 ml of reaction buffer with 300 μM NADH, mixing, and following the conversion until completion by absorbance at 340 nm. 50 μl of the final reaction mixture and standard curve solutions were added to each well in a 96 well fluorescence plate (costar, black, pp). Five replicates were made per sample and standard curve point. […] Fluorescence readings were performed in a BMG FLUOstar Galaxy micro plate reader with 544ex/590em filter settings.

[6] = Kinetics of cofactor substrates, NADPH; assay type: biochemical; conditions: pH 7.0, 30° C.
Procedure: as §1, §2

[7] = Activity-pH profile; assay type: biochemical
Procedure: With the supernatant of the 45% ammonium sulfate cut, an activity—pH profile was measured for SFNOX (FIG. 4). The pH optimum of activity was found at pH 5.2. Below pH 5, activity decreased markedly and reached zero at pH 4.5. Rates at pH 4.5 to 5.2 are reported as net rates, with the chemical decomposition rate at low pH subtracted. […] The sharp activity decline between pH 5.2 and 6.0 coincides with the enzyme's pI, calculated to be pH 5.4.
The pH profile was performed on ammonium sulfate fractions from the sfnoxK2. 100 mM buffer solutions at 30° C. and 200 μM NADH were used for activity analysis as monitored by absorbance at 340 nm. All samples were tested in triplicate in 3 mL methylacrylate disposable cuvettes. The following buffers were utilized within the buffering range of 1 pH unit from their pKa: acetate, N-methylpiperazine, MES (2-[N-morpholino]ethanesulfonic acid hydrate), and bis-tris-propane. Sodium hydroxide or hydrochloric acid were used in preparation of the respective buffers.

NC(=O)c1ccc[n+]([C@@H]2O[C@H](COP(=O)([O-])OP(=O)(O)OC[C@H]3O[C@@H](n4cnc5c(N)ncnc54)[C@H](O)[C@@H]3O)[C@@H](O)[C@H]2O)c1 [NAD^+]
KM-value for NAD^+ [1]: very high

Borrelia burgdorferi NADH oxidase BNOX (BNOXK6; SEQ ID NOs 8, 10 and 12) (Borreliella burgdorferi B31; E220G/N174S)
Km [2]: 22.0 µM

NC(=O)C1=CN([C@@H]2O[C@H](COP(=O)(O)OP(=O)(O)OC[C@H]3O[C@@H](n4cnc5c(N)ncnc54)[C@H](O)[C@@H]3O)[C@@H](O)[C@H]2O)C=CC1 [NADH]
vmax [3]: 2.03 U/mg

B1: SFNOXK2: sequenced SFNOX clone with alanine to valine change at position 30 (A30V), SEQ ID 4 (protein)
chain: MKVIVVGCTHAGTFAVKQTIADHPDADVTVYEMNDNISFLSCGIALYLGKEIKNNDPRGLFYSSPEELSNLGANVQMRHQVTNVDPETKTIKVKDLITNEEKTEAYDKLIMTTGSKPTVPPIPGIDSSRVYLCKNYNDAKKLFEEAPKAKTITIIGSGYIGAELAEAYSNQNYNVNLIDGHERVLYKYFDKEFTDILAKDYEAHGVNLVLGSKVAAFEEVDDEIITKTLDGKEIKSDIAILCIGFRPNTELLKGKVAMLDNGAIITDEYMHSSNRDIFAAGDSAAVHYNPTNSNAYIPLATNAVRQGRLVGLNLTEDKVKDMGTQSSSGLKLYGRTYVSTGINTALAKANNLKVSEVIIADNYRPEFMLSTDEVLMSLVYDPKTRVILGGALSSMHDVSQSANVLSVCIQNKNTIDDLAMVDMLFQPQFDRPFNYLNILGQAAQAQADKAHK
activity of the overexpressed constructs [4]: comparable activity

B2: SFNOXK6: sequenced SFNOX clone with A30V and lysine to arginine at position 102 (K102R), SEQ ID NO 6 (protein)
chain: MKVIVVGCTHAGTFAVKQTIADHPDADVTVYEMNDNISFLSCGIALYLGKEIKNNDPRGLFYSSPEELSNLGANVQMRHQVTNVDPETKTIKVKDLITNEERTEAYDKLIMTTGSKPTVPPIPGIDSSRVYLCKNYNDAKKLFEEAPKAKTITIIGSGYIGAELAEAYSNQNYNVNLIDGHERVLYKYFDKEFTDILAKDYEAHGVNLVLGSKVAAFEEVDDEIITKTLDGKEIKSDIAILCIGFRPNTGLLKGKVAMLDNGAIITDEYMHSSNRDIFAAGDSAAVHYNPTNSNAYIPLATNAVRQGRLVGLNLTEDKVKDMGTQSSSGLKLYGRTYVSTGINTALAKANNLKVSEVIIADNYRPEFMLSTDEVLMSLVYDPKTRVILGGALSSMHDVSQSANVLSVCIQNKNTIDDLAMVDMLFQPQFDRPFNYLNILGQAAQAQADKAHK
activity of the overexpressed constructs [4]: comparable activity

B3: SFNOX: NAD(P)H oxidase isolated from Lactobacillus sanfranciscensis, SEQ ID NO 2; oxidizes NADH and NADPH, reduces oxygen to water (protein)
chain: MKVIVVGCTHAGTFAVKQTIADHPDADVTAYEMNDNISFLSCGIALYLGKEIKNNDPRGLFYSSPEELSNLGANVQMRHQVTNVDPETKTIKVKDLITNEEKTEAYDKLIMTTGSKPTVPPIPGIDSSRVYLCKNYNDAKKLFEEAPKAKTITIIGSGYIGAELAEAYSNQNYNVNLIDGHERVLYKYFDKEFTDILAKDYEAHGVNLVLGSKVAAFEEVDDEIITKTLDGKEIKSDIAILCIGFRPNTELLKGKVAMLDNGAIITDEYMHSSNRDIFAAGDSAAVHYNPTNSNAYIPLATNAVRQGRLVGLNLTEDKVKDMGTQSSSGLKLYGRTYVSTGINTALAKANNLKVSEVIIADNYRPEFMLSTDEVLMSLVYDPKTRVILGGALSSMHDVSQSANVLSVCIQNKNTIDDLAMVDMLFQPQFDRPFNYLNILGQAAQAQADKAHK
H2O2 yield [5]: 0.2% | resorufin above background (equal concentration of H2O2 formed) [5]: 0.6 µM | acceptance of NADPH as a substrate [6]: accept NADPH as a substrate with good reactivity | activity with NADPH relative to activity towards NADH ([6]; ratio of vmax): about 30% | pH of the minimum of the bimodal activity-pH curve ([7]; 200 μM NADH, 30° C.): ~5.5 | pH optimum of activity ([7]; 200 μM NADH, 30° C., supernatant of 45% ammonium sulfate cut): 5.2 | activity at pH 4.5 ([7]; pH 4.5, net rate): zero | activity at pH 5.5 ([7]; pH 5.5): instantaneously lose activity

B4: BNOX: NADH oxidase from Borrelia burgdorferi, SEQ ID NO 8; reacts with NADH only (protein)
chain: MMKIIIIGGTSAGTSAAAKANRLNKKLDITIYEKTNIVSFGTCGLPYFVGGFFDNPNTMISRTQEEFEKTGISVKTNHEVIKVDAKNNTIVIKNQKTGTIFNNTYDQLMIATGAKPIIPPINNINLENFHTLKNLEDGQKIKKLMDREEIKNIVIIGGGYIGIEMVEAAKNKRKNVRLIQLDKHILIDSFDEEIVTIMEEELTKKGVNLHTNEFVKSLIGEKKAEGVVTNKNTYQADAVILATGIKPDTEFLENQLKTTKNGAIIVNEYGETSIKNIFSAGDCATIYNIVSKKNEYIPLATTANKLGRIVGENLAGNHTAFKGTLGSASIKILSLEAARTGLTEKDAKKLQIKYKTIFVKDKNHTNYYPGQEDLYIKLIYEENTKIILGAQAIGKNGAVIRIHALSIAIYSKLTTKELGMMDFSYSPPFSRTWDILNIAGNAAK
resorufin above background (equal concentration of H2O2 formed) [5]: could not detect any resorufin above background | acceptance of NADPH as a substrate [6]: does not accept NADPH as a substrate; also recorded: only accepts NADH
